Numbering of substitutions follows the chain as printed.
How the values were obtained:
[1] = molecular target: T1, R2-EE12RR345L CD28-9c delta; experiment: double-transduced C1498 cells sorted with CD34 beads by the captured Q2 zipper (FIG. 19)
T1 construct: also called tandem circular CD20 mimotope-tagged capture leucine zipper
T1 chain: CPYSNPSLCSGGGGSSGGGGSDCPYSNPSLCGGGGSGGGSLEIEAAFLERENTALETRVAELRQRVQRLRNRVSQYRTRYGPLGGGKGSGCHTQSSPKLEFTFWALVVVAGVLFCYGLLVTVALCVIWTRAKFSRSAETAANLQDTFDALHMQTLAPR
Protocol: Next, the cells were magnetically sorted with CD34 beads. Subsequently, the cells were incubated with antibodies in the presence of complement.

[2] = molecular target: T2, 1M mutant: RR123E45L linker EE12RR345L membrane-bound construct; experiment: FLAG staining of co-transduced C1498 cells, flow cytometry (FIG. 20)
T2 chain: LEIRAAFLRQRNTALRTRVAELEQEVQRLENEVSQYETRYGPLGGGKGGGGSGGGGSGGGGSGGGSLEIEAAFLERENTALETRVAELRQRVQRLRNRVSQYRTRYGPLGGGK
Description: (§1) C1498 cells were co-transduced with the FLAG-RR12EE345L GFP vector and one of the six mutants as part of RR12EE345L linker EE12RR345L BFP vector constructs. […] Thus, mutating the […] leucine zipper at “g” position residues to include repulsive amino acid interactions can reduce the degree of blocking by the linked […]-based mutant leucine zipper.

[3] = molecular target: T3, 1N mutant: E1R2EE345L linker EE12RR345L membrane-bound construct; experiment: as above
T3 chain: T2 chain with R4E, R18E
Description: as §1

[4] = molecular target: T4, 3N mutant: EE12R3E45L linker EE12RR345L membrane-bound construct; experiment: as above
T4 chain: T2 chain with R4E, R11E
Description: as §1

[5] = molecular target: T5, 2M mutant: RR1234E5L linker EE12RR345L membrane-bound construct; experiment: as above
T5 chain: T2 chain with E25R
Description: as §1

[6] = molecular target: T6, 3C mutant: RR12345L linker EE12RR345L membrane-bound construct; experiment: as above
T6 chain: T2 chain with E25R, E32R
Description: as §1

[7] = molecular target: T7, 2N mutant: EE12345L linker EE12RR345L membrane-bound construct; experiment: as above
T7 chain: T2 chain with R4E, R11E, R18E
Description: as §1

[8] = molecular target: T8, RR12EE345L linker EE12RR345L CD80 (mouse (CD80 part, SEQ ID NO: 111)); experiment: co-transduced T cells sorted with anti-FLAG magnetic beads (FIG. 21A)
T8 construct: left out; Expressed on T cells from a vector that also carries the CD20-streptag-CAR; also called CD80 functionalized leucine zipper
T8 chain: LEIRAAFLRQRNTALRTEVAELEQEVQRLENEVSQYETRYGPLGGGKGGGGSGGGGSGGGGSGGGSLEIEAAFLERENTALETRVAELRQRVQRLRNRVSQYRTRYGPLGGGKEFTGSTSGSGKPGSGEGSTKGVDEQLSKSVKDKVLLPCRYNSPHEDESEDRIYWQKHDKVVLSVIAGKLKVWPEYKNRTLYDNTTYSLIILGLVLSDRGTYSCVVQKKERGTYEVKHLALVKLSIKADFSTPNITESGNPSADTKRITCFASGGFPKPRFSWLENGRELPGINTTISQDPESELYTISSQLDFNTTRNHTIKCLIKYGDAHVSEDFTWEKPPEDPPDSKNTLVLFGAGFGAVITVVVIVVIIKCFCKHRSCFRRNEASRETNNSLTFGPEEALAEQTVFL
Description: T cells were transduced with vectors encoding (a) FLAG-RR12EE345L iCaspase9 CD19-myc-CAR and (b) RR12EE345L linker EE12RR345L CD80 CD20-streptag-CAR. Next, cells were magnetically sorted with anti-FLAG magnetic beads.

Measured: binding result

B1: Q2-RR12EE345L (designed binder)
chain: GSGELPTQGTFSNVSTNVSGGGGSGGGSELPTQGTFSNVSTNVSGGGGSGGGSALGLEIRAAFLRQRNTALRTEVAELEQEVQRLENEVSQYETRYGPLGGGK
binds: [1]

B2: FLAG-RR12EE345L leucine zipper (secreted, affinity-tagged) (designed binder)
chain: DYKDDDDKLEIRAAFLRQRNTALRTEVAELEQEVQRLENEVSQYETRYGPLGGGK
notes: also called RR12EE345L-FLAG
not listed: [1]
binds: all other assays above

— US20210179686A1 (Memorial Sloan Kettering, published 2021)
